Reference: patent US20220112286A1

Key:
[1] = target: human antigen (TRBV9 family beta-chain of the human T cell receptor), immobilized on AR2G sensors (human); experiment: BLI, OctetRed 96, antigen immobilized on AR2G sensors, antibody in solution, 1:1 global model
[2] = target: membrane TCR belonging to the TRBV9 family on human peripheral blood T lymphocytes (human); experiment: flow cytometry sorting of donor T lymphocytes with FITC-labelled MA-043 (100 ng/ml), then sequencing of TCR beta chains of the sorted cells
membrane TCR belonging to the TRBV9 family on human peripheral blood T lymphocytes (human), sequence (A0A0B4J1U6 22-114): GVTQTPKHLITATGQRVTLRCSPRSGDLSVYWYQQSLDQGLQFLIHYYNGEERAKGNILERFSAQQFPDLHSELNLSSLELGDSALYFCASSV

B1: monoclonal antibody MA-043 (antibody, V domains shown)
VH: QVQLVQSGPELKKPGESVKVSCKASGYTFTDYLVHWVRQAPGKGLEWMGWINTYTGTPTYADDFEGRFVFSLDTSASTANLQICSLKNEDTATYYCARSWRRGLRGIGFDYWGQGTLVTVSS
VL: DIQMTQSPYSLSASVGDRVTITCKASKSINKYLAWFQQKPGKPNKLLIYDGSTLQSGVPSRFSGSGSGTDFTLTISSLEPEDFATYYCQQHNEYPPTFGQGTKLEIKR
Q: With B1 as the binder, how does the Kd [1] read?
A: The Kd was under 1 pM.

Q: And the koff [1]?
A: The koff was under 1e-07 s⁻¹.

Q: What about the kon [1] of the same binder?
A: The kon was 329000 M⁻¹ s⁻¹.

Q: What about the enrichment of the sorted library with sequences encoded by the TRBV9 gene segment [2] of the same binder?
A: Its enrichment of the sorted library with sequences encoded by the TRBV9 gene segment is 91%.
